{
  "source": "patent US20240342298A1",
  "about": "(IMMUNWORK, published 2024)",
  "binders": {"B1": {"name": "daratumumab (antibody, V domains shown)", "VH": "EVQLLESGGGLVQPGGSLRLSCAVSGFTFNSFAMSWVRQAPGKGLEWVSAISGSGGGTYYADSVKGRFTISRDNSKNTLYLQMNSLRAEDTAVYFCAKDKILWFGEPVFDYWGQGTLVTVSS", "VL": "not shown"}},
  "key": {"human CD38 [1]": {"target": "T1, human CD38 (human, UniProt P28907 1-300)", "T1 construct": "whole, on cells; also called full-length human CD38", "test": "flow cytometry on live H929 cells, PE anti-human IgG-Fc detection"}, "human CD38 [2]": {"target": "T1, human CD38", "test": "flow cytometry on live U266-CD38+ cells, PE anti-human IgG-Fc detection"}},
  "data": [
    {"binder": "B1", "values": [
      {"measurement": "EC50", "setting": "human CD38 [1]", "result": 1.02, "unit": "nM"},
      {"measurement": "EC50", "setting": "human CD38 [2]", "result": 0.13, "unit": "nM"}
    ]}
  ]
}
